# Literature values as cited in paper PMC8249329.
# pKd: −log10 of the molar value.
# Target: ACE2 (Homo sapiens) (UniProt Q9BYF1)
# Sequence (Q9BYF1 18-740): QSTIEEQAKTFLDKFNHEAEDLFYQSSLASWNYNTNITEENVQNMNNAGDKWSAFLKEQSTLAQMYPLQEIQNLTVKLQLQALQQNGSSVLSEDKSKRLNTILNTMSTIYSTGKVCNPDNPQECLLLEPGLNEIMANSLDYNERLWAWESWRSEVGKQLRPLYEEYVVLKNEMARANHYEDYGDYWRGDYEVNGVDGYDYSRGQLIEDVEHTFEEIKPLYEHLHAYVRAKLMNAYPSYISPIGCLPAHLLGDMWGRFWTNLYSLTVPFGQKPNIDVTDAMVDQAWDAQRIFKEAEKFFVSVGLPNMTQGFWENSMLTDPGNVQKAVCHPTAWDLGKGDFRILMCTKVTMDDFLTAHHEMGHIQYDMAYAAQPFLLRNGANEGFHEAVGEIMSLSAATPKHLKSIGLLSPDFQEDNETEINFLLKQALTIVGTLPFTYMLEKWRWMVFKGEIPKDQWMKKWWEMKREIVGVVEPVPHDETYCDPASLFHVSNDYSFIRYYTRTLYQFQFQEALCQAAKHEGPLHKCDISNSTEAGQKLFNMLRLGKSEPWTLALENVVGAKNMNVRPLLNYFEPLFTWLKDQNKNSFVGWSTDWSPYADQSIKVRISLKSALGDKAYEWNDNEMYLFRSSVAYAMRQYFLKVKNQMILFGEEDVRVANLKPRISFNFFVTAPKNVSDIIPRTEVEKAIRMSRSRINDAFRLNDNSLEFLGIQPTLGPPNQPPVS
# Sequence of HCoV-NL63 spike RBD (Q6Q1S2 481-616): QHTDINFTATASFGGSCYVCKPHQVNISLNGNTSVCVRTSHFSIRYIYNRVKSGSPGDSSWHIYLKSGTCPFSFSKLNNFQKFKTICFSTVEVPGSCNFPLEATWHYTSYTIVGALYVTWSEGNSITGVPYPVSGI
substance,measurement,value
HCoV-NL63 spike RBD (from UniProt Q6Q1S2),pKd,7.46
